How the values were obtained:
[1] = molecular target: GP5 in the pVC vector (pVC-GP5) (HP-PRRSV-2 strain HuN4); experiment: split reporter (BiFC, NanoBiT); BiFC in HEK293T cotransfected with pVN and pVC plasmids, 24 hpt; YFP signal by confocal microscopy and ratio of YFP-positive cells by flow cytometry
[2] = molecular target: N protein in the pVC vector (pVC-N) (HP-PRRSV-2 strain HuN4); experiment: as above

Substance	percent of fluorescence-positive cells (BiFC) [1] [%]	percent of fluorescence-positive cells (BiFC) [2] [%]
N protein in the pVN vector (pVN-N) (natural protein)	3.87	
nsp2 in the pVN vector (pVN-nsp2) (natural protein)		32.1
